In publication PMC12754688 (Gut Microbes, 2025):

B1: monovalent VHH BL2.1 (VHH)
VHH: QVQLQQSGGGLVQAGGSLRLSCAASGFTFDDYAIGWFRQAPGKEREGISSIVGSDNYTWYTDSVKGRFTISSDNTRSTVYLQMNSLKPEDTAVYYCAADSYSDYVSLNPETFGSWGQGTQVTVSS
notes: also called LT109; non-N-glycosylated BL2.1; source: E. coli BL21 (DE3), periplasmic extract, purified (IMAC, cation exchange)
B2: BL2.1 (monovalent VHH) (VHH)
VHH: B1 VHH
notes: also called LT109; VHH BL2.1; source: E. coli BL21 (DE3), periplasmic extract, purified (IMAC, cation exchange)

Columns and labels:
Conditions in all cases: both partners purified
[1] = biological target: T1, cholera toxin B-subunit pentamer (Vibrio cholerae; ctxB genotype of …, UniProt P01556); test: BLI
T1 construct: source: bought: Sigma-Aldrich (C9903)

[2] = biological target: T2, cholera toxin holotoxin (AB5) (Vibrio cholerae; strain/ctxB genotype …, UniProt P01555;P01556); test: SEC
T2 construct: source: Vibrio natriegens, from culture medium, purified (D-galactose column, SEC); copies: 1 + 5
T2 sequence (P01556 22-124, looked up, chain 1 of 2): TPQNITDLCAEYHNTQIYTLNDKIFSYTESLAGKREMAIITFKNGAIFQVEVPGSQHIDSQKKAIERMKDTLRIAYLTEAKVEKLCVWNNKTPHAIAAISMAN
T2 sequence (P01555 whole entry, looked up, chain 2 of 2): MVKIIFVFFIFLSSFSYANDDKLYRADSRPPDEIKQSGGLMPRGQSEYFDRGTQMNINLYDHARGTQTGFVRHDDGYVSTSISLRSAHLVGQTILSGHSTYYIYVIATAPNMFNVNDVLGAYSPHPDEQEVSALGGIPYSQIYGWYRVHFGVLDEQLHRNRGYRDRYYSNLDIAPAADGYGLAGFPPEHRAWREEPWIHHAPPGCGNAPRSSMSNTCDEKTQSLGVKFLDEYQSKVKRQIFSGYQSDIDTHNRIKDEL

[3] = biological target: T3, heat-labile enterotoxin B-subunit pentamer (LTB-6HIS-3FLAG) (Escherichia coli (ETEC), human-type …, UniProt P0CK94, biotin (NHS-PEG4-Biotin) in the DELFIA experiments only); test: BLI; Octet RED96; […] (76 nM) […] (120–0.470 nM); […]
[4] = biological target: T3, heat-labile enterotoxin B-subunit …; test: SPR; Biacore 8K+; […] (1–300 nM); single-cycle kinetics, HBS-EP+, 30 µl min^−1, 25 °C; global 1:1 model
[5] = biological target: T3, heat-labile enterotoxin B-subunit …; test: SPR; Biacore 8K+; […] (1–300 nM); single-cycle kinetics, HBS-EP+, 30 µl min^−1, 25 °C; global 1:1 model; […]
[6] = biological target: T4, LTB pentamer (receptor-binding B-subunit of heat-labile enterotoxin), LTB-6HIS-3FLAG (Escherichia coli (ETEC), human-type …, UniProt P0CK94); test: BLI; Octet RED96; […] (76 nM) […] (120-0.470 nM); global 1:1 ([…]) fit; […]
T4 construct: source: E. coli BL21 (DE3), periplasmic extract, purified (IMAC)

[7] = biological target: T5, CTXB pentamer (receptor-binding B-subunit of cholera toxin) (Vibrio cholerae; ctxB genotype of …, UniProt P01556); test: as above
T5 construct: source: bought: Sigma-Aldrich (C9903)

[8] = biological target: T4, LTB pentamer (receptor-binding …); test: SPR; Biacore 8K+; […] (1 µg/ml) […] (1-300 nM), single-cycle kinetics, HBS-EP+, 30 µl/min, 25 °C; global 1:1 fit; […]
[9] = biological target: T5, CTXB pentamer (receptor-binding …); test: as above
[10] = biological target: T4, LTB pentamer (receptor-binding …); test: SPR; Biacore 8K+; […] (5 µg/ml) […] (1-300 nM), single-cycle kinetics, HBS-EP+, 30 µl/min, 25 °C; global 1:1 fit; […]
[11] = biological target: T5, CTXB pentamer (receptor-binding …); test: as above

Row | Binder | Kd [1] | binding result [2] | Kd [3] | Kd [4] | Kd [5] | koff [6] | kon [6] | koff [7] | kon [7] | koff [8] | kon [8] | koff [9] | kon [9] | koff [10] | kon [10] | koff [11] | kon [11]
1 | B1 | 0.33 nM | binds | < 0.001 nM | 0.26 nM | 0.003 nM | – | – | – | – | – | – | – | – | – | – | – | –
2 | B2 | – | – | – | – | – | < 1e-07 s⁻¹ | 69700 M⁻¹ s⁻¹ | 3.53e-05 s⁻¹ | 108000 M⁻¹ s⁻¹ | 2.48e-05 s⁻¹ | 7.93e+06 M⁻¹ s⁻¹ | 0.000212 s⁻¹ | 557000 M⁻¹ s⁻¹ | 0.000182 s⁻¹ | 696000 M⁻¹ s⁻¹ | 0.00179 s⁻¹ | 218000 M⁻¹ s⁻¹
